Source: article PMC11773481

Target: purified recombinant DPP9-FLAG, Q86TI2
Test: SEC + native gel or EMSA; protein expressed alone in Expi293F, purified by anti-FLAG IP, Superdex 200 Increase 10/300 GL; BN-PAGE immunoblot
Conditions: remark: other sources report otherwise

- stoichiometry N: 2
B1: purified recombinant DPP9-FLAG, Q86TI2 1-863 (enzyme)
chain: MATTGTPTADRGDAAATDDPAARFQVQKHSWDGLRSIIHGSRKYSGLIVNKAPHDFQFVQKTDESGPHSHRLYYLGMPYGSRENSLLYSEIPKKVRKEALLLLSWKQMLDHFQATPHHGVYSREEELLRERKRLGVFGITSYDFHSESGLFLFQASNSLFHCRDGGKNGFMVSPMKPLEIKTQCSGPRMDPKICPADPAFFSFINNSDLWVANIETGEERRLTFCHQGLSNVLDDPKSAGVATFVIQEEFDRFTGYWWCPTASWEGSEGLKTLRILYEEVDESEVEVIHVPSPALEERKTDSYRYPRTGSKNPKIALKLAEFQTDSQGKIVSTQEKELVQPFSSLFPKVEYIARAGWTRDGKYAWAMFLDRPQQWLQLVLLPPALFIPSTENEEQRLASARAVPRNVQPYVVYEEVTNVWINVHDIFYPFPQSEGEDELCFLRANECKTGFCHLYKVTAVLKSQGYDWSEPFSPGEDEFKCPIKEEIALTSGEWEVLARHGSKIWVNEETKLVYFQGTKDTPLEHHLYVVSYEAAGEIVRLTTPGFSHSCSMSQNFDMFVSHYSSVSTPPCVHVYKLSGPDDDPLHKQPRFWASMMEAASCPPDYVPPEIFHFHTRSDVRLYGMIYKPHALQPGKKHPTVLFVYGGPQVQLVNNSFKGIKYLRLNTLASLGYAVVVIDGRGSCQRGLRFEGALKNQMGQVEIEDQVEGLQFVAEKYGFIDLSRVAIHGWSYGGFLSLMGLIHKPQVFKVAIAGAPVTVWMAYDTGYTERYMDVPENNQHGYEAGSVALHVEKLPNEPNRLLILHGFLDENVHFFHTNFLVSQLIRAGKPYQLQIYPNERHSIRCPESGEHYEVTLLHFLQEYL
